Columns and labels:
Histone H4 = Histone H4 (UniProt P62805)
Histone H3.3 = Histone H3.3 (UniProt P84243)
Histone H3.1 = Histone H3.1 (UniProt P68431)

wild type SIRT6 polypeptide (sirtuin 6)
histone acetylation PTM profile by LC-MS/MS in 3T3-L1 adipocytes (Histone H4): Overexpression of SIR6 wt or SIRT6cent in 3T3-L1 led to changes in the acetylation profiles of histones H3.1, H3.2 and H4 | histone acetylation/methylation PTM profile by LC-MS/MS in 3T3-L1 adipocytes (Histone H3.3): significant difference between AdiWT and AdiCent at the levels of lysines (K) ... K27, K36 and K37 in H3.3 | histone acetylation/methylation PTM profile by LC-MS/MS in 3T3-L1 adipocytes (Histone H3.1): Overexpression of SIR6 wt or SIRT6cent in 3T3-L1 led to changes in the acetylation profiles of histones H3.1, H3.2 and H4

Source: US20260199524
